From the supplement of paper PMC10567573

B1: ZNF8 (parent)
chain: VHVIGVEEPSVGASMLFDIREST
B2: KRT34 (parent)
chain: PTVDLNQVLNETRSQYEALVETNR

Variants of: B1
Test: protein stability index of a GFP-peptide fusion (GPS, HEK-293T) (PSI 1-6); higher = more stable
Details: c terminus: native
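Note: lentivirally expressed fusions sorted by FACS into six bins by GFP to DsRed ratio, PSI derived from sequencing read proportions per bin multiplied by bin number.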

Protein stability index, by site and new letter:
D18: V 2.9 | W 2.19 | Y 2.55
I19: A 3.07 | C 2.37 | D 3.65 | E 3.34 | F 1.64 | G 2.72 | H 3.37 | K 3.14 | L 2.04 | M 2.33 | N 3.23 | P 3.1 | Q 3.4 | R 2.7 | S 3.29 | T 2.91 | V 2.38 | W 1.51 | Y 2.06
R20: A 1.64 | C 1.85 | D 2.96 | E 3.26 | F 2.49 | G 2.37 | H 2.68 | I 1.86 | K 2.4 | L 1.55 | M 1.79 | N 3.1 | P 2.48 | Q 2.36 | S 2.63 | T 2.4 | V 1.57 | W 2.43 | Y 1.81
E21: A 2.37 | C 2.9 | D 2.38 | F 2.77 | G 2.42 | H 1.95 | I 3.55 | K 2.2 | L 2.64 | M 2.04 | N 2.08 | P 1.42 | Q 1.29 | R 1.53 | S 1.76 | T 2.01 | V 1.78 | W 3.39 | Y 2.4
S22: A 2.38 | C 2.52 | D 2.62 | E 2.58 | F 2.23 | G 1.79 | H 2.55 | I 1.69 | K 2.3 | L 1.68 | M 2.55 | N 3.08 | P 2.42 | Q 2.2 | R 1.92 | T 2.35 | V 1.55 | W 1.36 | Y 1.59
T23: A 2.01 | C 1.76 | D 2.37 | E 2.37 | F 1.61 | G 2.12 | H 2.45 | I 1.69 | K 2.22 | L 1.79 | M 2.14 | N 2.14 | P 2.04 | Q 2.09 | R 2.63 | S 2.48 | V 2.06 | Y 1.76

Variants of: B2
Test: as above
Details: c terminus: a fixed tail appended

Protein stability index, by site and new letter:
P1: A 3.41 | C 2.77 | D 4.12 | E 2.82 | F 3.22 | G 3.5 | H 3.97 | I 2.42 | K 3.83 | L 2.88 | M 3.31 | N 3.21 | Q 3.77 | R 3.43 | S 3.82 | T 3.96 | V 2.5 | W 2.95 | Y 2.84
T2: C 2.67 | D 3.82 | E 2.78 | F 1.89 | G 4.14 | H 3.38 | I 2.99 | K 3.14 | L 1.85 | M 1.85 | N 3.72 | P 3.01 | Q 2.71 | R 3.66 | S 3.27 | V 2.52 | W 1.4 | Y 1.65
V3: A 3.63 | C 4.07 | D 4.76 | E 4.03 | F 3.65 | G 4.15 | H 3.8 | I 3.7 | K 2.76 | L 2.65 | M 2.45 | N 4.46 | P 4.62 | Q 3.05 | R 2.92 | S 4.28 | T 3.89 | W 5.02 | Y 2.83
D4: A 4.21 | C 2.97 | E 4.01 | F 3.19 | G 3.62 | H 3.56 | I 3.58 | K 3.94 | L 3.56 | M 3.21 | N 4.38 | P 3.05 | Q 4.34 | R 4.48 | S 2.73 | T 3.5 | V 4.02 | W 2.59 | Y 3.44
L5: A 2.51 | C 3.68 | D 4.67 | E 4.61 | F 3.92 | G 4.68 | H 3.8 | I 2.24 | K 4.8 | M 4.24 | N 4.57 | P 3.77 | Q 4.38 | R 4.53 | S 4.13 | T 4.8 | V 2.86 | W 3.3 | Y 2.77
N6: A 2.48 | C 2.51 | D 2.79 | E 2.56 | F 2.42 | G 3.79 | H 2.92 | I 2.03 | K 2.98 | L 2.14 | M 1.9 | P 4.8 | Q 2.56 | R 3.9 | S 3.33 | T 3.05 | V 2 | W 2.5 | Y 1.71
Q7: A 3.13 | C 3.95 | D 3.66 | E 3.25 | F 3.61 | G 4.25 | H 4 | I 2.99 | K 3.98 | L 4.08 | M 3.62 | N 3.92 | P 4.79 | R 3.65 | S 3.62 | T 2.75 | V 2.37 | W 3.08 | Y 3.65
V8: A 3.56 | C 3.48 | D 4.64 | E 4.4 | G 4.2 | H 3.52 | I 3.57 | K 4.22 | L 1.43 | M 2.88 | N 4.58 | P 4.2 | Q 4.3 | R 4.67 | S 4.18 | T 3.76 | W 2.56 | Y 2.29
L9: A 4.09 | C 4.45 | D 5.55 | E 4.52 | F 3.45 | G 4.64 | H 4.66 | I 3.14 | K 4.45 | M 4.21 | N 4.76 | P 5.34 | Q 3.36 | R 4.36 | S 5.03 | T 4.61 | V 4.28 | W 4.04 | Y 3.61
N10: A 2.44 | C 2.82 | D 3.74 | E 2.41 | F 2.63 | G 4.35 | H 3.19 | I 2.47 | K 2.7 | L 1.58 | M 2.49 | P 4.55 | Q 2.5 | R 3.21 | S 3.46 | T 2.75 | V 3.21 | W 3.02 | Y 2.91
E11: A 4.06 | C 3.91 | D 3.81 | F 3.22 | G 4.05 | H 4.18 | I 3.42 | K 3.79 | L 3.36 | M 3.95 | N 3.69 | P 4.1 | Q 3.93 | R 4.03 | S 3.85 | T 3.78 | V 4.44 | W 3.15 | Y 3.72
T12: A 1.8 | C 3.49 | D 5.22 | E 4.27 | F 2.4 | G 4.39 | H 1.75 | I 1.84 | K 4 | N 4.03 | P 4.12 | Q 2.21 | R 4.28 | S 3.54 | V 3.04
R13: A 3.85 | C 3.57 | D 5.18 | E 5.07 | F 3.07 | G 4.52 | H 3.46 | I 2.83 | K 3.31 | L 3.34 | N 5.01 | P 4.79 | Q 3.97 | S 4.67 | T 4.27
